Reference: US20240076389A1 (NATIONAL RESEARCH COUNCIL OF CANADA, published 2024)

T1: human AXL expressed on the cell surface of tumor cell lines (human, UniProt P30530 26-894)
T1 construct: whole, on cells; also called cell surface-expressed AXL; cell-based AXL
T1 sequence (looked up): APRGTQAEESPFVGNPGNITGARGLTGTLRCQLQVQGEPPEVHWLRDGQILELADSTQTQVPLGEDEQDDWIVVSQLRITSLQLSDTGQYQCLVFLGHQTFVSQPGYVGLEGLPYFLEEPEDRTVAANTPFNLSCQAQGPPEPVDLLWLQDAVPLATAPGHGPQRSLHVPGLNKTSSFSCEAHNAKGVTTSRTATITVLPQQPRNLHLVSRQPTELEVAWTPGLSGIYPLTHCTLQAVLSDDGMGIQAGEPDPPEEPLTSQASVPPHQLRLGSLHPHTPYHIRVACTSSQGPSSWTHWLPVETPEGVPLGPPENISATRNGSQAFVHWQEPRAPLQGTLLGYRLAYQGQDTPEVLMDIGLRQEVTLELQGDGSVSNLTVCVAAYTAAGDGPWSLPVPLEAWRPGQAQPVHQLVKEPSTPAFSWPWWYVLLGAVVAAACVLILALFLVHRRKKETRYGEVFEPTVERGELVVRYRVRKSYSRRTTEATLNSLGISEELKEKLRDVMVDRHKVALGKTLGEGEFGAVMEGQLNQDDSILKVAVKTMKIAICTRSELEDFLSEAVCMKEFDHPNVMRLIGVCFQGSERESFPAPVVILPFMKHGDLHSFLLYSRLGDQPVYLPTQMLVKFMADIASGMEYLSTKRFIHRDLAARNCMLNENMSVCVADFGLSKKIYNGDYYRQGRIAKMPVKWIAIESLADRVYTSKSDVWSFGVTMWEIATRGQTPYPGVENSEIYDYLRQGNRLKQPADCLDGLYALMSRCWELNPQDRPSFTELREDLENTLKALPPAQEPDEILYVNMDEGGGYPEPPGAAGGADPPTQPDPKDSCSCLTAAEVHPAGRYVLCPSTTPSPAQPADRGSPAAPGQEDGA

T2: recombinant human AXL extracellular domain, C-terminally His8-tagged (rhAXL-ECD) (human, UniProt P30530 26-451)
T2 construct: Made in CHO cells; also called (rh)AXL-ECD His8; human AXL ECD
T2 sequence: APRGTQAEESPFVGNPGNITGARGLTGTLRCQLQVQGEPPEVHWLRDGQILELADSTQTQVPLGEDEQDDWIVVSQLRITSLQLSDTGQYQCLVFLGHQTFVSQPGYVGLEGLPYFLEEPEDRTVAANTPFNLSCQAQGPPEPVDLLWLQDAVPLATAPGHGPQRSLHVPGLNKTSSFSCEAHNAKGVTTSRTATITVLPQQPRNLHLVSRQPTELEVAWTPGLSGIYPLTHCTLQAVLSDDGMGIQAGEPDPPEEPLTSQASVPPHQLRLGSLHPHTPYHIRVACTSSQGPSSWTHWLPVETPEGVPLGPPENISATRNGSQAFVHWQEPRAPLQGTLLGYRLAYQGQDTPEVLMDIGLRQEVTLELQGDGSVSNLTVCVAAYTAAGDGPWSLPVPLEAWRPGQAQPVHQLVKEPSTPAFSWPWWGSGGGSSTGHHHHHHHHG


Columns and labels:
[1] = molecular target: T1, human AXL expressed on the cell surface …; experiment: FACS on SKOV3 cells, apparent Kd, human Fc format
Protocol: FACS binding assay. Adherent cells were dissociated with non-enzymatic Sigma Cell Dissociation Solution (Cat. No. C5789). Cells suspensions were added to polypropylene, V-bottom 96-well plates and incubated for 2 hours on ice with primary antibodies at concentrations ranging from 100 nM to 0.001 nM or at a single dose of 100 nM (for the non-specific control). After incubation and washes, cells were incubated with fluorescently labeled secondary antibody (Alexa Fluor® 488 anti-human IgG from Jackson Cat. No 709-546-098) for 1 hour on ice, then washed. Cell viability was determined using Fixable viability dye 450 (20 min on ice). Stained cells were fixed in 1% formaldehyde at 4° C. and stored at 4° C. until acquisition which was performed the next day.
Binding of recombinant chimeric Abs to three cell lines was assessed by FACS as described above. The apparent Bmax and Kd determination is shown below in Table 14.

[2] = molecular target: T2, recombinant human AXL extracellular …; experiment: SPR, VHH-Fc captured, AXL ECD flowed, single-concentration kinetics (estimate)
Protocol: (§1) For VH Hs and VHH-Fcs, binding to human and cynomolgus AXL ECD was assessed using either a Biacore T200 instrument or a Biacore 3000 instrument. Either human AXL ECD or anti-human Fc antibody was immobilized on a research-grade CM5 series S sensor chip (T200, rhAXL ECD) or a C1 sensor chip (3000, anti-human Fc) using amine coupling in acetate buffer. VHH-Fcs were captured on anti-human Fc surfaces. Either monomeric VHHs (for rhAXL ECD surfaces) or human and cyno AXL ECD (for VHH-Fc surfaces) were flowed over the surfaces at different concentration ranges. Running buffers were HBS-EP (3000) and HBS-EP+(T200). Flow rates were 10-40 ul/min. All binding studies were performed at 25° C. Surfaces were regenerated using 10 mM glycine, pH 1.5.

[3] = molecular target: T3, recombinant cynomolgus AXL extracellular domain (cynomolgus); experiment: as above
T3 construct: range 1-449; also called Cyno AXL; cyno AXL ECD
Protocol: as §1

[4] = molecular target: T2, recombinant human AXL extracellular …; experiment: ELISA on coated AXL ECD (100 ng/well), HRP-protein A
Protocol: ELISA. ELISAs against human, cyno and mouse AXL ECDs were conducted by immobilizing 100 ng of each protein in wells of Nunc MaxiSorp microplates overnight. Human AXL (aa 1-451) and cyno AXL (aa 1-449) were produced recombinantly as described in Example 10. Mouse AXL was purchased from Sino (cat. 51026-M08H). The next day, plates were blocked with 5% (w/v) dried milk in PBS. Murine mAbs (either hybridoma- or recombinantly-produced) or VHH-Fcs were diluted in PBS containing 1% BSA and 0.1% Tween-20 and added to wells for 2 hours at room temperature. Wells were washed 5× with PBS containing 0.1% Tween-20, then HRP-labeled protein A (diluted 1:1000 in PBS containing 1% BSA and 0.1% Tween™-20) was added to wells for 1 hour at room temperature. Wells were washed again 5× with PBS/0.1% Tween-20 and developed using TMB substrate. Absorbance was measured at 450 nm. As a positive control for mouse AXL binding, a commercial anti-mouse AXL mAb (clone 175128, R&D Systems MAB8541, rat IgG2A) was used and detected with donkey […] secondary antibody.

Kd [1] [nM]	Kd [2] [nM]	koff [2] [s⁻¹]	kon [2] [M⁻¹ s⁻¹]	Kd [3] [nM]	koff [3] [s⁻¹]	kon [3] [M⁻¹ s⁻¹]	EC50 [4] [nM]	Binder
0.112	6	0.0072	1.3e+06	8	0.0072	920000		NRC-sdAb001-Fc (VHH-human IgG1 Fc fusion) (Fc fusion, VHH fused N-terminally to human IgG1 Fc, made in HEK293 cells; also called NRC-sdAb0001-Fc; NRC-sdAb001-hIgG1; not shown: human IgG1 Fc) QVKLEESGGGLVQAGGSLRLSCTASASISSFDIMGWYRQAPGKQRELVAAITTLDIANYRDSVKGRFTISRDNAKNTVYLQMDSLKPEDTARYHCAAFQSDQNYWGQGTQVTVSS
							2	hFC-F107-10G1 (antibody, human IgG1, kappa, V domains shown, Chimeric mAb, human IgG1 / human kappa constant regions; also called mAb F107-10G1) VH: EVNLVESGGGVVKPGASLKLSCEASGFTFSNYGMSWVRQTSDKRLEWVASISGGGGRTYYLDNVKGRFIISRENAKNTLYLQMSSLKSEDTALFYCARGARASYFAMDYWGQGSSVTVSS VL: VIVMTQSHKFMSTSVGDRVSITCKASQDVTTAVAWYQQKPGQSPKLLIYWASTRHTGVPDRFTGSGSGTDYSLTISNVQTEDLAFYYCQQHFTTPLTFGAGTKLELKR
